Broadly, the Kd is the concentration at which binding is half-saturated.

Experimental findings from article PMC8928829 are described below.

This test deals with NIH-CoVnb-112. Put plainly: BLI.
Chain of NIH-CoVnb-112 (heavy, as listed by the source): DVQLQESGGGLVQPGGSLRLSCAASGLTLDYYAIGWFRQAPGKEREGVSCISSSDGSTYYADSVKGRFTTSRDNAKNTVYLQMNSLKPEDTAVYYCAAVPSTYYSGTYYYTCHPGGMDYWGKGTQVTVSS

“SARS-CoV-2 RBD K417N (from UniProt P0DTC2) (domain or fragment)” gave a Kd of 1.42 nM.
The value for “SARS-CoV-2 RBD T478K (from UniProt P0DTC2) (domain or fragment)” was 0.497 nM; that for “SARS-CoV-2 RBD L452R (from UniProt P0DTC2) (domain or fragment)” was 4.88 nM.
